Test results as given in publication PMC4773404, “Activation of a synapse weakening pathway by human Val66 but not Met66 pro-brain-derived neurotrophic factor (proBDNF)” (Pharmacological Research, 2016).

How the values were obtained:
Experiment in all cases: SPR; Biacore T200; receptor domains amine-coupled to CM5-S Series chips; analytes 0-20 nM flowed over; 10 mM HEPES, 150 mM NaCl, 3 mM EDTA, 0.05% surfactant P20, pH 7.4; double-referenced; 1:1 Langmuir fit
Conditions in all cases: both partners purified
[1] = target: T1, human proBDNF Val66, furin cleavage-resistant (FCR) (human)
T1 construct: furin site 127RR128 changed to AA; non-glycosylated; Cloned in pET 24a(+); also called proBDNF FCR Val66
T1 sequence (P23560 whole entry, looked up): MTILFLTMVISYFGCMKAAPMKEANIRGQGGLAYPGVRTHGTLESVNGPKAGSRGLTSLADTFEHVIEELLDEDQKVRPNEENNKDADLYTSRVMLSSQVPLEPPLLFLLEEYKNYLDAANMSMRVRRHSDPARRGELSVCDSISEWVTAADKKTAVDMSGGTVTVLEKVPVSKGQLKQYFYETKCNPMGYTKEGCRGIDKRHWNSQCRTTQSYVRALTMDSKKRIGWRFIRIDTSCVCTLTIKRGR

[2] = target: T2, human proBDNF Met66, furin cleavage-resistant (FCR) (human)
T2 construct: furin site 127RR128 changed to AA; non-glycosylated; Cloned in pET 24a(+); also called proBDNF FCR Met66
T2 sequence (P23560 whole entry, looked up): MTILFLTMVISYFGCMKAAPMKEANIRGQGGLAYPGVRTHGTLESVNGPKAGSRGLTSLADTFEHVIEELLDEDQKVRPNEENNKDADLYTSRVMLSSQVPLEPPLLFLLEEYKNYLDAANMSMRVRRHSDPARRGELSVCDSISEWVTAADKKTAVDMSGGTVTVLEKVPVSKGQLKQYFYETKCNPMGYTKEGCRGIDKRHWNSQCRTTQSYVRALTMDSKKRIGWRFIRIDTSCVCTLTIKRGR

[3] = target: T3, brain-derived neurotrophic factor (BDNF)
T3 construct: mature BDNF (~14 kDa), the cut product of proBDNF; used as control analyte in SPR; also called mature BDNF
T3 sequence (P23560 19-247, species assumed, looked up): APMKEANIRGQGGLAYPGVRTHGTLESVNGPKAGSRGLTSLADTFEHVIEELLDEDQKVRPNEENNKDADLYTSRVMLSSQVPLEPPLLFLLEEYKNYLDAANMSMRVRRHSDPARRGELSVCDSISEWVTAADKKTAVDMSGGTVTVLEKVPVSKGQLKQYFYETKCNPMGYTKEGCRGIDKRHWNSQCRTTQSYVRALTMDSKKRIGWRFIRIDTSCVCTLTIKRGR

B1: TrkB immunoglobulin-like domain 2 (TrkBIg2) (domain or fragment)
chain: APTITFLESPTSDHHWCIPFTVKGNPKPALQWFYNGAILNESKYICTKIHVTNHTEYHGCLQLDNPTHMNNGDYTLIAKNEYGKDEKQISAHFMGWPG
With B1 the Kd [1] was 2.32 nM, the koff [1] was 0.00367 s⁻¹ and the kon [1] was 1.61e+06 M⁻¹ s⁻¹. It also gave a Kd [2] of 2.03 nM, a koff [2] of 0.00392 s⁻¹ and a kon [2] of 1.99e+06 M⁻¹ s⁻¹. It also gave a Kd [3] of 0.58 nM, a koff [3] of 0.00232 s⁻¹ and a kon [3] of 4.57e+06 M⁻¹ s⁻¹.
